Here are results for 32 variants from the RNAGym collection of RNA variant scans (doi:10.7554/elife.80360).

B1: HDV Ribozyme (parent)
chain: GGCCGGCAUGGUCCCAGCCUCCUCGCUGGCGCCGGCUGGGCAACAUUCCGAGGGGACCGUCCCCUCGGUAAUGGCGAAUGGGACCCA

Variants of B1 are the subject of this data set. Nature of the data set: self-cleavage, relative activity (ratio to wild type); higher = more cleavage; co-transcriptional.
Regarding GGCCGGCAUGGUCCCAGCCUCCUCGCUGGCGCCGGCUGGGCAACAUUCGGAGGGGACCGUCCCCUCGGUCAUGGCGAAUGGGACCCA [C49G A70C], the self-cleavage was found to be 0.415.

With GGCCGGCAUGGUCCCAGCCUCCUCGCUGGCGCCGGCUGGGCAACAUUCGGAGGGGACCGUCCCCUCGGUUAUGGCGAAUGGGACCCA [C49G A70U], the self-cleavage is 0.429.

On to GGCCGGCAUGGUCCCAGCCUCCUCGCUGGCGCCGGCUGGGCAACAUUCAGAGGGGACCGUCCCCUCGGUAAUGGGGAAUGGGACCCA [C49A C75G], for which the self-cleavage came to 0.128.

In the case of GGCCGGCAUGGUCCCAGCCUCCUCGCUGGCGCCGGCUGGGCAACAUUCAGAGGGGACCGUCCCCUCGGUAAUGGUGAAUGGGACCCA [C49A C75U], the self-cleavage worked out at 0.175.

Take GGCCGGCAUGGUCCCAGCCUCCUCGCUGGCGCCGGCUGGGCAACAUUCAGAGGGGACCGGCCCCUCGGUAAUGGCGAAUGGGACCCA [C49A U60G]: the self-cleavage was 1.33.

For GGCCGGCAUGGUCCCAGCCUCCUCGCUGGCGCCGGCUGGGCAACAUUCAGAGGGGACCGACCCCUCGGUAAUGGCGAAUGGGACCCA [C49A U60A], the self-cleavage worked out at 0.745.

As for GGCCGGCAUGGUCCCAGCCUCCUCGCUGGCGCCGGCUGGGCAACAUUCGGAUGGGACCGUCCCCUCGGUAAUGGCGAAUGGGACCCA [C49G G52U], the self-cleavage is 0.48.

On to GGCCGGCAUGGUCCCAGCCUCCUCGCUGGCGCCGGCUGGGCAACAUUCGGAGGGGACCGUCCCCUAGGUAAUGGCGAAUGGGACCCA [C49G C66A], for which the self-cleavage was 0.773.

GGCCGGCAUGGUCCCAGCCUCCUCGCUGGCGCCGGCUGGGCAACAUUCAGAGGGGACCGUCCCCUCGGUAAUGGCGAAUGGGACACA [C49A C85A]: the self-cleavage worked out at 1.13.

Consider GGCCGGCAUGGUCCCAGCCUCCUCGCUGGCGCCGGCUGGGCAACAUUCAGAGGGGACCGUCCCCUCGGUAAUGGCGAAUGGGACUCA [C49A C85U], for which the self-cleavage turned out to be 0.811.

GGCCGGCAUGGUCCCAGCCUCCUCGCUGGCGCCGGCUGGGCAACAUUCAGAGGGGACCGUCCCCUCGGUAAUGGCGAAUGGGAUCCA [C49A C84U]: the self-cleavage was 0.686.

GGCCGGCAUGGUCCCAGCCUCCUCGCUGGCGCCGGCUGGGCAACAUUCAGAGGGGACCGUCCCCUCGGUAAUGGCGAAUGGGAGCCA [C49A C84G]: the self-cleavage amounted to 0.743.

As for GGCCGGCAUGGUCCCAGCCUCCUCGCUGGCGCCGGCUGGGCAACAUUCAGAGGGGACCGUCCCCUCGGUAAUGGCGAAGGGGACCCA [C49A U79G], the self-cleavage stood at 0.665.

As to GGCCGGCAUGGUCCCAGCCUCCUCGCUGGCGCCGGCUGGGCAACAUUCAGAGGGGACCGUCCCCUCGGUAAUGGCGAACGGGACCCA [C49A U79C], the self-cleavage was 0.61.

With GGCCGGCAUGGUCCCAGCCUCCUCGCUGGCGCCGGCUGGGCAACAUUCAGAGGGGACCGUCGCCUCGGUAAUGGCGAAUGGGACCCA [C49A C62G], the self-cleavage came out at 0.128.

Turning to GGCCGGCAUGGUCCCAGCCUCCUCGCUGGCGCCGGCUGGGCAACAUUCAGAAGGGACCGUCCCCUCGGUAAUGGCGAAUGGGACCCA [C49A G52A], the self-cleavage came out at 0.739.

On to GGCCGGCAUGGUCCCAGCCUCCUCGCUGGCGCCGGCUGGGCAACAUUCAGAUGGGACCGUCCCCUCGGUAAUGGCGAAUGGGACCCA [C49A G52U], for which the self-cleavage worked out at 0.369.

As for GGCCGGCAUGGUCCCAGCCUCCUCGCUGGCGCCGGCUGGGCAACAUUCGGAGGGGUCCGUCCCCUCGGUAAUGGCGAAUGGGACCCA [C49G A56U], the self-cleavage was 0.96.

As for GGCCGGCAUGGUCCCAGCCUCCUCGCUGGCGCCGGCUGGGCAACAUUCGGAGGGGGCCGUCCCCUCGGUAAUGGCGAAUGGGACCCA [C49G A56G], the self-cleavage turned out to be 0.917.

For GGCCGGCAUGGUCCCAGCCUCCUCGCUGGCGCCGGCUGGGCAACAUUCAGAGGGGACCGUCCCCUCGGUAAUGGCGAAUGGGACCAA [C49A C86A], the self-cleavage worked out at 1.22.

Take GGCCGGCAUGGUCCCAGCCUCCUCGCUGGCGCCGGCUGGGCAACAUUCAGAGGGGACCGUCCCCUCGGUAAUGGCGAAUGGGACCUA [C49A C86U]: the self-cleavage is 0.795.

For GGCCGGCAUGGUCCCAGCCUCCUCGCUGGCGCCGGCUGGGCAACAUUCGGAGGGGAACGUCCCCUCGGUAAUGGCGAAUGGGACCCA [C49G C57A], the self-cleavage was 1.19.

On to GGCCGGCAUGGUCCCAGCCUCCUCGCUGGCGCCGGCUGGGCAACAUUCAGAGGGGACCGUCCCCUCGGUAAUGGCGAAUGGCACCCA [C49A G82C], for which the self-cleavage came out at 0.222.

GGCCGGCAUGGUCCCAGCCUCCUCGCUGGCGCCGGCUGGGCAACAUUCGGAGGGGACCGUCCCCUCGGUAAUGGCGAAUGGGCCCCA [C49G A83C]: the self-cleavage amounted to 0.403.

Regarding GGCCGGCAUGGUCCCAGCCUCCUCGCUGGCGCCGGCUGGGCAACAUUCGGAGGGGACCGUCCCCUCGGUAAUGGCGAAUGGGACCCC [C49G A87C], the self-cleavage was found to be 0.672.

In the case of GGCCGGCAUGGUCCCAGCCUCCUCGCUGGCGCCGGCUGGGCAACAUUCGGAGGGGACCGUCCCCUCGGUAAUGGCGAAUGGGACCUA [C49G C86U], the self-cleavage came out at 0.831.

Turning to GGCCGGCAUGGUCCCAGCCUCCUCGCUGGCGCCGGCUGGGCAACAUUCGGAGGGGACCGUCCCCUCGGUAAUGGCGAAUGGGACCAA [C49G C86A], the self-cleavage was found to be 0.966.

Take GGCCGGCAUGGUCCCAGCCUCCUCGCUGGCGCCGGCUGGGCAACAUUCAGAGGGGACCGUCCCCUCGGAAAUGGCGAAUGGGACCCA [C49A U69A]: the self-cleavage was determined as 0.808.

Take GGCCGGCAUGGUCCCAGCCUCCUCGCUGGCGCCGGCUGGGCAACAUUCAGAGGGGACCGUCCCCUCGGUAAUCGCGAAUGGGACCCA [C49A G73C]: the self-cleavage was 0.293.

In the case of GGCCGGCAUGGUCCCAGCCUCCUCGCUGGCGCCGGCUGGGCAACAUUCAGAGGGGACCGUCCCCUCGGUAAUGGCAAAUGGGACCCA [C49A G76A], the self-cleavage is 0.991.

With GGCCGGCAUGGUCCCAGCCUCCUCGCUGGCGCCGGCUGGGCAACAUUCAGAGGGGACCGUCCCCUCGGUAAUGGCUAAUGGGACCCA [C49A G76U], the self-cleavage amounted to 1.01.

For GGCCGGCAUGGUCCCAGCCUCCUCGCUGGCGCCGGCUGGGCAACAUUCAGAGGGGACCGUCCCCUCGAUAAUGGCGAAUGGGACCCA [C49A G68A], the self-cleavage came out at 0.742.
